Assay: yeast display, Sf9 membrane polyspecificity reagent, FACS + sequencing; frameworks hold sequencing errors
How it was run: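 Nanobodies from a synthetic yeast display library (Saccharomyces cerevisiae BJ5465), induced 36–48 hours with galactose, were stained 1 hour at 4 °C with 10% biotinylated, detergent-solubilized Sf9 membrane reagent, enriched on streptavidin microbeads, then FACS-sorted. Anti-HA (expression) and streptavidin (reagent binding) fluorescence set low and high (top ~1%) gates. Polyreactivity labels come from the gate of origin. Genes were colony-PCR amplified, MiSeq 2 × 250 sequenced and filtered by CDR length.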

Sequence: QVQLVESGGGLFQAGGSLRLSCSASGSIFKRYAMVWYRQAPGKERELVARITNRSGNTYYADSVKGRFTISRDNAKNTVYLQMISLKPEDSAVYYRAATKSLGRYYMYYWGQGTQVTVSS
- polyreactivity (PSR sort gate): low polyreactivity

Sequence: QVQLVESGGGLVQAGGSLRLSCAASGRIFSVYAMGWYRQAPGKEREFVAAITKGGVGTYYADSVKGRFTISRDHAKNSVYLQMNSLKPEDTAVYYFAARHYYGADRYYSWGQGTQVTVSS
- polyreactivity (PSR sort gate): high polyreactivity

Sequence: QVQLVESGGGLVQAGGSLRLICAASGSTVYNAMGWYRQAPGTEREFVAVITDSDGSTYYADSVKGRFTISRDNAKNTVYLQMNSLKPEDTAVYDCAADDYAYSYGYWLTYDYWGQGTQVTVSS
- polyreactivity (PSR sort gate): low polyreactivity

Sequence: QVHLVDSGRGLVQAGGSLRLSCAASGSTFAEYVMGRYRQAPGKERELVASIDSGGGTNYADSVKGRFTISRDNAKNTVYLQMNSLKPEDTAVYYCAASGRDIGGYDYWGHGTQVTVSS
- polyreactivity (PSR sort gate): low polyreactivity

Sequence: QVQLVESGGGLVQAGGSLRLSCAASGSTFAYYAMGWYRQAPGKERELVAASSVSGGRTYYADSVQGRFTISRDNAKNTVYLQMNSLKPEDTAVYYCAARLWRDYYWGQGTQVTVSS
- polyreactivity (PSR sort gate): high polyreactivity

Sequence: QVQLVESGGGLVQAGGSLRLSCAASGYTIRGYVMGWYRQAPGKERELVAAISASGGRTYYADSVKGRFTISRDYATNTVYLLMNSLKPEDTAVYYCAADSSRTPLEFDYWGQGTQVTVSS
- polyreactivity (PSR sort gate): high polyreactivity

Sequence: QVQLVESGGGLVQAGGSLRLSCAPSGFTFRYYAMAWYRQAPGKEREFVAAISWSGGSTYYADSVKGRFTISRDNAKNTVYLQMNSLKPEDTAVYYCAAYYPLWGWGYDYWGQGTQVTVSS
- polyreactivity (PSR sort gate): high polyreactivity

Sequence: QVQLVESGGGLVQAGGILRLSCAASGRILDGYAMGWYRQAPGKERELVAAISSRGGRTYYADSVKGRFTISRDNAKNTVYLQMNSLKPEDTAVYYCAATRYGTYEYNYWGQGTQVTVSS
- polyreactivity (PSR sort gate): high polyreactivity

Sequence: QVQLVESGGGLVQAGGSLRLSCAASGLTFGTYAMGWYRQAPGKERELVAAISTSGVRTYYADSVKGRFTISRDNAKNTVYLQMNSLKPEDTAVYYCAARYNRAYSRDYWGQGTQVTVSS
- polyreactivity (PSR sort gate): high polyreactivity

Sequence: QVQLVESGGGLVQAGGSLRLSCAASGSIFYTYVMGWYRPAPGKERELVAVISWSSTSTYYADSVKGRFTISRDNAKKTVYLQMNSLKPEDTAVYYCAAGVHRYRPGHGYDDGGYYWGQGTQVTVSS
- polyreactivity (PSR sort gate): low polyreactivity

Sequence: QVQLVESGGGLVQAGGSLRLSCAASGRIFQRYAMGWYRQAPGKERELVAGITSSGGSTYYADSVKGRFTISRDNAKNTVYLQMNSLKPEDTAVYYCNAGGELRYYGYRAGGTTRSYDYWGQGTQVTVSS
- polyreactivity (PSR sort gate): low polyreactivity

Sequence: QVQLVESGGGLLQAGGSLRVSCAASGSIFHENAMGWYRQAPGKERELVAAIDQTGSTYADSVKGRFTISRDNAKNTVYLQMNSLKPEDTAVYYCAKGDVSLDYPSLEFDYWGQGSQVTVSS
- polyreactivity (PSR sort gate): low polyreactivity

Sequence: QVQLVESGGGLVQAGGSLRLSCAASGRTLGQYEMGWYRQAPGTERELVAAITSSDGITYYADSVKGRFTISRDNAKNTVYLQMNSLKPEDTAVYYCASDYPYYWYWTYLYDYCGQGTQVTVSS
- polyreactivity (PSR sort gate): low polyreactivity

Sequence: QVQLVESGGGLVQAGGSLRLSCAASGRTLVINVMGWYRQAPGKERELVAAISFRSGNTYYADSVKGRFTISRDNAKNTVYLQMNSLKPEDTAVYYCAAYTYRTSTTSSYYYWGQGTQVTVSS
- polyreactivity (PSR sort gate): high polyreactivity

Sequence: QVQIVESGGGLVQAGGSLRISCAPSGLIFAYYAMGRYRQAPGKERELVAAISSVGSTYYADSVKGRFTISRDNAKNTVYLQMNSLKPEDTAVYYCAAALYPYYWPEYNYWGQGTQVNVSS
- polyreactivity (PSR sort gate): high polyreactivity

Sequence: QVQLVESGGGLVQAGGSIRLICAASGPIFSSYAIGCYRQAPGKERELVAAITSSGTSTYYADSVKGRFTISRDYAKNTVYVQMTSLKPEDTAVYYCAARRARTGDYWGQGTQVTLSS
- polyreactivity (PSR sort gate): high polyreactivity

Sequence: QVQLVDSGGGLVQAGGSLRLSCGASGLIFKYNVMGWYRQAPGKERELVAAITWGGTRTYYADSVKGRFTISRDTAKNTVYLQMNSLKPEDTAVYYCAVRSARIERNYWGQGTQVTVSS
- polyreactivity (PSR sort gate): low polyreactivity

Sequence: QVQLVESGGGLVQAGGSLRLSCAASGNIFNDNAKGLYRKAPVKERELVAAISSGGSTNYADSVKGRFTISRDYAKNTVYLQMNSLKPEDTAVYYCAAELTLIYWWSLDYWGQGTQVTVSS
- polyreactivity (PSR sort gate): low polyreactivity

Sequence: QVHLVESGGGLVQAGGSLRLSCAASGRIFHYNTMGWYRQAPGKERELVAAITSSGGSTYYADSVKGRFTISRDNAKNTVYLQMNSLKPEDTAVYYCNAVFYRYGFKVDYWGQGTQETVSS
- polyreactivity (PSR sort gate): high polyreactivity

Sequence: QVQLVESGGGLVQAGGSLRLSCAASGRTFVVNAMGWYRQAPGKEREFVAAISYRGDSTYYADSVKGRFTISRDNAKNTVYLQMNSLKPEDSAVYYCAARVLGPGRRYYYWGQGTQVTLSS
- polyreactivity (PSR sort gate): high polyreactivity

Sequence: QVQLVESGGGLVQAGGSLRLSCAASGSIFDRNAMGWYRQAPGKERELVSAINSNGGITYYADSVKGRFTISRDNAKNTVYLQMNSLKPEDTAVYYCAAVIRVVYREDHCGQGTQVTVSS
- polyreactivity (PSR sort gate): low polyreactivity

Sequence: QVQLVESGGGLVQAGGSLRISCAASGGTFQPYAMGWYRQAPGKERELVAAITSSDGSTYYADSVKWRFTISRDNAKNTVYLQMNSLKPEDTAVYYCNATIASGYGDRYVDTSHDYWGQGTQVTVSS
- polyreactivity (PSR sort gate): low polyreactivity

Sequence: QVQLVESGGGLVQAGGSLRLSCAASGRTFLLNAMGWSRQAPGKERELVAAITRSGVITYYADSVKGRFTISRDNAKNTVYLQMNSLKPEDTAVYYCAAQLRYSYLRPSYYYWGQGTQVTVSS
- polyreactivity (PSR sort gate): high polyreactivity

Sequence: QVQLVESGGGLVQAGGSLRLSCAASGSIFVKNAMGWYRQAPGKERELVAVITIRTATTYYADSVKGRFTISRDNAKNTVYLQMNSLKPEDTAVYYCAAAKRQRGYLQREGNYWGQGTQVTVSS
- polyreactivity (PSR sort gate): low polyreactivity

Sequence: QVQVVESGGGLVQAGGSLRLSCAASGFTYGNNGMGWYRQAPGKERELVATISWSGGSTYADSVKGRFTISRDNAKNTVYLQMNSLKPEDTAVYYCAARYFVYYQEVDYWGQGTQVTVSS
- polyreactivity (PSR sort gate): low polyreactivity

Sequence: QVQLVESGGGLVQAGCSLRLSCASSGLTFSFYAMGWYRQAPGKERELVAAISKGGGSTSYADSVKGRFTISRDNAKNTVYLQMNSLKPEDTAVYYCAARYYYSRSRLYYYWGQVTQVTVSS
- polyreactivity (PSR sort gate): high polyreactivity

Sequence: QVQLVESGGGLVQAGGSLRLSCAASGLIFGTYAMGWYRQAPGKERELVAVISSSGGSTYYADSVKGRFTISRDNAKNTVYLQLNSLKPEDTAVYYCNARAFRQGHFEYDYWGQGTQVTVSS
- polyreactivity (PSR sort gate): low polyreactivity

Sequence: QVQLVESGGCLVQAGGSLRLSCDASGGIFVSYAMGWYRQAPRKDRELVAAITSGGGTSYADSVKGRFTISRDNAKNTVYLQMNSLKPEDTAVYYCNADGYLAERFVIRLDEYRDYDYWGQGTQVTVSS
- polyreactivity (PSR sort gate): low polyreactivity

Sequence: QVQLVESGGGLDQAGRSLRLSCAASGSTFPYTAMGWYRQAPGKYRELVAGITDGDGSTSYADSVKGRFTISRDNAKNTVYLQMNCMKPELPAVYYCAARYTYYADEDDYWGQGSQVTVSS
- polyreactivity (PSR sort gate): low polyreactivity

Sequence: QVQLVESGGGLVQAGGSLRLSCAASGSIFSRYAMGRYRQAPGKERELVAAISKSGGSTYYADSVKGRFTISRDNAKNTVYLQMNSLKPEDTAVYYCNARDSPGQRRAEPYGYWGQGTQVTVSS
- polyreactivity (PSR sort gate): high polyreactivity

Sequence: QVQLVESGGGLVQAGGSLRLSCAASGSTLSFNAMGWYRQAPGKERELVAGITYSGGSTYYADSVKGRFTISRDNAKNTVYLQMNSLKPEDTAVYYCNKSSGVYYGHLDYWGQGTQVTVSS
- polyreactivity (PSR sort gate): low polyreactivity

Sequence: QVQLVESGGGLVQAGGSLRLSCAASGFTFRRYTMGWYRQAPGKERELVAAISRSGGSTFYADSVKGRFTISRDYAKNTVYLQMNSLKPEDTAVYYCNAGRTYTALNGDYWGQGTQVTVSS
- polyreactivity (PSR sort gate): high polyreactivity

Sequence: QVQLVESGGGLVQAGGSLRLSCAASGSTSGPYAMGWYRQAPGKETELVATISWIGDRTYYADSVKGRFTISRDNAKNTIYLQMNSLKPEDTAVYYCNADYRGYANLEGDYWGQGTQVTVSS
- polyreactivity (PSR sort gate): low polyreactivity

Sequence: QVQLVESGGGLVQAGGSLRLRCAASGFNHKPMGCYRQAPGKERELVAAISYSAGSTYYADSVKGRFTISRDNAKNTVYLQMNSLKPEDTAVYYCDIRYNYFTGTLSRYYSNIYGYWGQGTQVTVSS
- polyreactivity (PSR sort gate): high polyreactivity

Sequence: QVQLVESGGGLVQAGGSLRLSCAASGLTFDYYVMGWYRQAPGKERELVATISWSGDITYYADSVKGRFTISRDNAKNTVYLQMNSLKPEDTAVYYCAADYLDSTYGYVYGWDDYWGQGTQVTVSS
- polyreactivity (PSR sort gate): low polyreactivity

Sequence: QVQLVESGGGLVQAGGSLRLSCAASGFTFDFYVMGWYRPAPGTERELVAANSWDGGTTYYADSVKGRFTISRDNAKNTVYLQLNSLKPEDTAVYYCAADDWVYVPTGAWYLYEYWGQGTQVTVSS
- polyreactivity (PSR sort gate): high polyreactivity

Sequence: QVQLVESGGGLVQAGGSLRLSCAASGFTFYTNAMGWYRQARGQERELVAAISSSGGRTYYADSVKGRFTISRDNAKNTVYLQMNSLKPEDTAVYYCNAYFTRSFSYIYWGQGTQVTVSS
- polyreactivity (PSR sort gate): high polyreactivity

Sequence: QVQLVESGGGLVQAGGSLRLSCAASGSIFWGNDMGWYRQAPGKERELVAGIRNSGTSTYYADSVKGRFTISRDHAKNTVYLQMNSLKPEDTAVYYCAAADGRQYSRYYWRGHDYWGQGTQVTVSS
- polyreactivity (PSR sort gate): low polyreactivity

Sequence: QVQVVESGGGLVQEGGSHRISCAASGRIFFTNAMGWSRQAPGKERELVAAINDVGSTYYADSVKGRFTISRDNAKNTVYLQLNSLKAEDTAVYYCAVQAYGRGRSLKMYYWRQGTQVTVSS
- polyreactivity (PSR sort gate): high polyreactivity

Sequence: QVQLVEACGGLVQAGGSLRLICAASGNIFAYNAMGWYRQAPGKERELVAAISVIGGTTYYADSVKGRFTISRDNAKNTVYLQMNSLKPEDTAVYSCSVDSVQYGGGYERLHELYYWGQGTQVTVSS
- polyreactivity (PSR sort gate): low polyreactivity

Sequence: QVQLVESGGGLVQAGGSLRLSCAASGSTFPYNAMGWYSPAPGKERELVAAITSAGGTNYADSVKGRFTISRDNATNTVYLQMNSLKPEDTAVYYCAADGSGYYDWYYYWGQGTQVTVSS
- polyreactivity (PSR sort gate): low polyreactivity

Sequence: QVQLVESGGGLVQAGGSLRLSCAASGRTFWQYSMGWYRQAPGKERELVAAITSSGGSTYYADSVKGRFTISRDNAKNTVYLQMNSLKPEDTAVYYCAADTRYYRYYYWGQGTQVTVSS
- polyreactivity (PSR sort gate): high polyreactivity

Sequence: QVQLVESGGGLVQAGGSLRLSCAASGSIFRYYAMGWYRQAPGKETEFGADISASGGSTYYADSVKGRFTISRDNAQNTVYLQMNSLKPEDNAVYYWAARYSYRRPGGYQLGSWGQGTQVTVSS
- polyreactivity (PSR sort gate): high polyreactivity
